Like-named read-outs stand apart in the source and are kept apart here.
How the values were obtained:
[1] = target: T1, recombinant human CD3ε-ECD His protein (human, UniProt P07766 23-126); assay: SPR (Biacore), antibody captured on Protein A chip
T1 construct: extracellular domain; also called human CD3ε-His; CD3ε antigen protein; not shown: His tag
Method: Sample buffer and running buffer were HBS-EP+(10 mM HEPES, 150 mM NaCl, 3 mM EDTA, 0.05% surfactant P20) (GE Healthcare; BR-1006-69). The flow-through cell was set to 25° C. The sample block was set to 16° C. Both were pretreated with the running buffer. In each cycle, the antibody to be detected was first captured with a Protein A chip, and then a single concentration of CD3ε antigen protein (purchased from Sino Biological, Inc. (China), catalog number: 10977-H08H) was injected. The binding and dissociation processes of the antibody and the antigen protein were recorded, and finally a glycine solution (pH 1.5, GE Healthcare; BR-1003-54) was used to complete chip regeneration. The binding was measured by injecting different concentrations of recombinant human CD3ε-ECD His proteins in a solution for 240 s with a flow rate of 30 μL/min. The concentration started from 200 nM (see the detailed results for the actual concentration in the test) and was diluted at 1:1, making a total of 5 concentrations. The dissociation phase was monitored for up to 600 s and was triggered by switching from sample solution to running buffer. The surface was regenerated by washing with a 10 mM glycine solution (pH 1.5) for 30 s at a flow rate of 30 μL/min. Bulk refractive index difference was corrected by subtracting the response obtained from the goat anti-human Fc surface. Blank injection was also subtracted (=double reference). For calculation of apparent KD and other kinetic parameters, Langmuir 1:1 model was used.

[2] = target: T2, human CD3 on the cell surface (Jurkat cells, expanded human T cells, Jurkat-Lucia NFAT cells, human PBMC) (human, UniProt P07766 23-207; P04234 22-171; P09693 23-182); assay: FACS, Jurkat cells
T2 construct: whole, on cells; Endogenous CD3 within the TCR-CD3 complex on cells (also zeta chains and TCR); the cell type is named under assay
Method: (§1) The binding of the chimeric antibodies to CD3 on the cell surface was analyzed by detecting the binding of the antibodies to Jurkat cells and human T cells. Suspension cells Jurkat cells were scale-up cultured in T-75 cell culture flasks to the logarithmic growth phase, the supernatant of the medium was discarded by centrifugation, and the cell pellet was washed 2 times with PBS for later use. The expanded human T cells were washed 2 times with PBS for later use. After counting the cells in the previous step, the cell pellet was resuspended with [PBS+2% (w/w) BSA] blocking solution to 4×10⁶ cells/ml, and added to a 96-well FACS reaction plate at 50 μl/well, and then the chimeric antibody to be tested was added at 50 μl/well, and incubated at 4° C. for 1 h. The cells were centrifuged and washed 3 times with a PBS buffer. […] The cells were centrifuged and washed 5 times with PBS, and FACS (FACS Canto™, purchased from BD Company) was used for detection and result analysis. Data analysis was performed by software (CellQuest) to obtain the mean fluorescence […] (MFI) of the cells. And then software (GraphPad Prism8) was used for analysis, data fitting, and EC50 value calculation. The same method was used to simultaneously detect the binding of the chimeric antibodies to endogenous CD3 negative cells MOLT4 cells.

[3] = target: T2, human CD3 on the cell surface (Jurkat …); assay: FACS, expanded human T cells
Method: as §1

[4] = target: T3, cynomolgus monkey CD3 on the surface of expanded monkey T cells (cynomolgus monkey, UniProt Q95LI5 22-198; Q95LI8 22-171; Q95LI7 23-181); assay: FACS, expanded monkey T cells
T3 construct: whole, on cells; Endogenous CD3 within the TCR-CD3 complex on T cells expanded from cynomolgus monkey PBMC
Method: as §1
(§2) FACS detection and data analysis were performed on the cryopreserved monkey T cells of Example 2.4 according to the method in Example 5.1.

[5] = target: T2, human CD3 on the cell surface (Jurkat …); assay: cell-based or functional assay
[6] = target: T2, human CD3 on the cell surface (Jurkat …); assay: FACS, expanded human T cells; remark: listed apart in the source
Method: as §1

[7] = target: T2, human CD3 on the cell surface (Jurkat …); assay: cell-based or functional assay; remark: listed apart in the source
[8] = target: T3, cynomolgus monkey CD3 on the surface of …; assay: FACS, expanded monkey T cells, 4 nM antibody
Method: as §1, §2

human CD3ε/δ-His [9] = target: T4, human CD3ε/δ-His (human, UniProt P07766 23-126; P04234 22-105); assay: SPR, antibody captured on Protein A chip
T4 construct: Bought recombinant heterodimer with His tag; also called human CD3ε/δ protein
Method: (§3) Running buffer was HBS-EP+(10 mM HEPES, 150 mM NaCl, 3 mM EDTA, 0.05% surfactant P20) (GE Healthcare; BR-1006-69). The flow-through cell was set to 25° C. The sample block was set to 16° C. Both were pretreated with the running buffer. In each cycle, an antibody to be detected was first captured with a Protein A chip, and then a single concentration of CD3ε antigen protein was injected. The binding and dissociation processes of the antibody and the antigen protein were recorded, and finally Glycine pH 1.5 (GE Healthcare; BR-1003-54) was used to complete chip regeneration. The binding was measured by injecting different concentrations of recombinant human CD3ε proteins in a solution for 240 s with a flow rate of 30 μL/min. The concentration started from 200 nM (see the detailed results for the actual concentration in the test) and was diluted at 1:1, making a total of 5 concentrations. The dissociation phase was monitored for up to 600 s and was triggered by switching from sample solution to running buffer. The surface was regenerated by washing with a 10 mM glycine solution (pH 1.5) for 30 s at a flow rate of 30 μL/min. Bulk refractive index difference was corrected by subtracting the response obtained from the goat anti-human Fc surface, and the blank injection was subtracted at the same time (=double reference). For calculation of apparent KD value and other kinetic parameters, Langmuir 1:1 model was used.

[10] = target: T1, recombinant human CD3ε-ECD His protein; assay: SPR, antibody captured on Protein A chip
Method: as §3

[11] = target: T3, cynomolgus monkey CD3 on the surface of …; assay: FACS, expanded monkey T cells; remark: listed apart in the source
Method: as §1
The expanded monkey T cells were collected, and FACS detection and data analysis were performed according to the method in Example 5.1.

monkey CD3ε/δ-His = target: T5, monkey CD3ε/δ-His (monkey, UniProt Q95LI5 22-117; Q95LI8 22-105); assay: ELISA, coated antigen
T5 construct: Bought recombinant heterodimer with His tag
Method: (§4) To detect the binding activity of the humanized antibodies to CD3 protein, CD3 protein was diluted with PBS to the final concentration of […], then added to a 96-well ELISA plate at 50 μL/well, and the plate was sealed with a plastic film, and incubated overnight at 4° C. On the next day, the plate was washed 2 times with PBS, and a blocking solution [PBS+2% (v/v) BSA] was added for blocking at room temperature for 2 h. The blocking solution was poured off, and the antibody (initial concentration of 100 nM, and gradient dilution at 1:10) or a negative control antibody was added at 50 µl/well. After incubation at 37° C. for 2 h, the plate was washed 3 times with PBS. […] TMB substrate was added at 50 μl/well, and incubated at room temperature for 10 min, and then a stop solution (1.0 N HCl) was added at 50 μl/well. The OD450 nm values were read by an ELISA microplate reader (Multimode Plate Reader, EnSight, purchased from Perkin Elmer).
(§5) To detect the binding activity of the humanized antibodies to monkey CD3 protein, CD3 protein was diluted with PBS to the final concentration of […], and then added to a 96-well ELISA plate at 50 μl/well.

monkey CD3ε protein = target: T6, monkey CD3ε protein (monkey, UniProt Q95LI5 22-117, limits assumed); assay: ELISA, coated antigen
T6 sequence (looked up): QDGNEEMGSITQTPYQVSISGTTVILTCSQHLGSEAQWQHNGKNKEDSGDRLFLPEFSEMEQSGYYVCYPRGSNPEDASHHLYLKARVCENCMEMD
Method: as §4, §5

[12] = target: T2, human CD3 on the cell surface (Jurkat …); assay: FACS, expanded human T cells; remark: listed apart in the source
Method: as §1
The expanded human PBMC cells were collected, and FACS detection and data analysis were performed according to the method in Example 5.1.

human CD3ε/δ-His [13] = target: T4, human CD3ε/δ-His; assay: ELISA, coated antigen
Method: as §4

[14] = target: T1, recombinant human CD3ε-ECD His protein; assay: ELISA, coated antigen
Method: as §4

human CD3ε/δ-His [15] = target: T4, human CD3ε/δ-His; assay: ELISA, coated antigen; remark: listed apart in the source
Method: as §4

[16] = target: T1, recombinant human CD3ε-ECD His protein; assay: ELISA, coated antigen; remark: listed apart in the source
Method: as §4

human CD3ε/δ-His [17] = target: T4, human CD3ε/δ-His; assay: ELISA, coated antigen; remark: listed apart in the source
Method: as §4

[18] = target: T1, recombinant human CD3ε-ECD His protein; assay: ELISA, coated antigen; remark: listed apart in the source
Method: as §4

T1 sequence (P07766 23-126): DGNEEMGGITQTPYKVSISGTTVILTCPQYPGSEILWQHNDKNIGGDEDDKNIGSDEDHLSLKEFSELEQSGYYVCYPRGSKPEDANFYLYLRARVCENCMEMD
T4 sequence (P07766 23-126, stated change not applied, form in doubt, chain 1 of 2): as the sequence (P07766 23-126) above
T4 sequence (P04234 22-105, stated change not applied, form in doubt, chain 2 of 2): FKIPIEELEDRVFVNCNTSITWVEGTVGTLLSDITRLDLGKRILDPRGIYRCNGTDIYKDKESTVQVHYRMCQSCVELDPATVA
T2 sequence (P07766 23-207, chain 1 of 3): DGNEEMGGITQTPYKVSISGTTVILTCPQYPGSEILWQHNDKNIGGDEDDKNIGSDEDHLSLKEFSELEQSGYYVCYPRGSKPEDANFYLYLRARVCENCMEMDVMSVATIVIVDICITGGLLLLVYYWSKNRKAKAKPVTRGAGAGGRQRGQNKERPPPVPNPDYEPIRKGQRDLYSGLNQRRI
T2 sequence (P04234 22-171, chain 2 of 3): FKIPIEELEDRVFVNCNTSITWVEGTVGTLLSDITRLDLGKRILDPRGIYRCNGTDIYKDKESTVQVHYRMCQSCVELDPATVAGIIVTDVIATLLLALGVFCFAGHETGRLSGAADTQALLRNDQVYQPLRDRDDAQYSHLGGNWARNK
T2 sequence (P09693 23-182, chain 3 of 3): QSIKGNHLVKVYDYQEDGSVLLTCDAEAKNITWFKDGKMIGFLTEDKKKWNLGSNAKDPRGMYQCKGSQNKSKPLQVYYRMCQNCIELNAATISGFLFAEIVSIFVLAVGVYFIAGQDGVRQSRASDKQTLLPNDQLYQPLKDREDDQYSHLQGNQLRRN
T5 sequence (Q95LI8 22-105, stated change not applied, form in doubt, chain 2 of 2, one chain of several): as the sequence (P04234 22-105, stated change not applied, form in doubt, chain 2 of 2) above, with I5V, N15K, I20V, S32T, D33N, I34N, T64A, S74N, V83L counted along it

B1: 1-22.6 human-murine chimeric antibody (antibody, human IgG1, kappa, V domains shown)
VH: QIPLVQSGPELKKPGETVKISCKTSGYTFTSYGMSWVKQAPGKGLKWMGWINTYSGVPTYADDFKGRFVFSLDTSASTAFLQINNLKNEDTATYFCARLKNNPFCWGQGSTLTVFS
VL: DVLMTQSPLSLPVRLGDQASISCRSSQLILHSNGNTYLEWYLQKPGQSPKLLIYKVSNRFSGVPDRFSGSGSGTDFTLKISRVEAEDLGVYYCFQGSHFPWTFGGGTKLEIKR
Q: How did the Kd [1] turn out when B1 was run?
A: 5.51 nM

Q: And the koff [1]?
A: 0.000699 s⁻¹

Q: And the kon [1]?
A: 127000 M⁻¹ s⁻¹

Q: And the EC50 [2]?
A: 4.28 nM

Q: And the MFI_Max [2]?
A: 2080 MFI

Q: And the EC50 [3]?
A: 18.1 nM

Q: What about the MFI_Max [3] of the same binder?
A: 15100 MFI

Q: What about the EC50 [4] of the same binder?
A: 5.51 nM

Q: And the MFI_Max [4]?
A: 43600 MFI

Q: What about the “EC50 (nM), luciferase reporter, Jurkat-Lucia NFAT cells” value [5] of the same binder?
A: 11.6 nM

Q: And the “Maximum response value (RLU)” value [5]?
A: 31700 RLU

B2: 8-18.1 human-murine chimeric antibody (antibody, human IgG1, kappa, V domains shown)
VH: QVQLQQSGAELARPGASVKMSCKASGYIFTMNTMHWVKQRPGQGLEWIGYINPYSGYTKYNQIFKDKATLTADKSSSTAYMRLSSLTSEDSAVYYCLRGGEGVWGQGTTLTVSS
VL: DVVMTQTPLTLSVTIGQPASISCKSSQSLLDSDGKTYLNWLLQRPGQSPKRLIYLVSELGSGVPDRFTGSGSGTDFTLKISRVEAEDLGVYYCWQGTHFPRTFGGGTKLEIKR
notes: Human IgG1 chimera
Q: B2 was tested. Which EC50 [6] did it give?
A: 1.58 nM

Q: What about the MFI_Max [6] of the same binder?
A: 8980 MFI

Q: What about the Kd [1] of the same binder?
A: 0.542 nM

Q: And the koff [1]?
A: 0.000241 s⁻¹

Q: What about the kon [1] of the same binder?
A: 445000 M⁻¹ s⁻¹

Q: And the “EC50 (nM), luciferase reporter, Jurkat-Lucia NFAT cells” value [7]?
A: 11.8 nM

Q: And the “Maximum response value (RLU)” value [7]?
A: 10400 RLU

Q: And the “MFI at antibody concentration 4 nM” value [8]?
A: 16100 MFI

B3: 6-44.5-H1-L2 humanized antibody (antibody, human IgG1, kappa, V domains shown)
VH: EVQLVQSGAEVKKPGSSVKVSCKASGHTFSSHIMHWVRQAPGQGLEWMGYINPNNDRTEYSEKFKGRVTITADKSTSTAYMELSSLRSEDTAVYYCAGEAYYSNSLYAMDYWGQGTTVTVSS
VL: DIVMTQSPDSLAVSLGERATINCKSSQSLFNSRTRKNYLAWYQQKPGQSPKLLIYWASTRESGVPDRFSGSGSGTDFTLTISSLQAEDVAVYYCKQSYYLRTFGGGTKVEIKR
Q: Which results are given for B3?
A: Kd (human CD3ε/δ-His [9]): 69 nM; koff (human CD3ε/δ-His [9]): 0.0339 s⁻¹; kon (human CD3ε/δ-His [9]): 491000 M⁻¹ s⁻¹; Kd [10]: 0.669 nM; koff [10]: 0.000311 s⁻¹; kon [10]: 466000 M⁻¹ s⁻¹; EC50 [11]: 0.17 nM; max_MFI [11]: 24800 MFI; EC50 (monkey CD3ε/δ-His): 0.000225 nM; max-OD450 (monkey CD3ε/δ-His): 3.07 OD450; EC50 (monkey CD3ε protein): 0.00947 pM; max-OD450 (monkey CD3ε protein): 2.84 OD450; EC50 [12]: 0.43 nM; max_MFI [12]: 34000 MFI; EC50 (human CD3ε/δ-His [13]): 0.03 nM; max-OD450 (human CD3ε/δ-His [13]): 3.05 OD450; EC50 [14]: 0.09 nM; max-OD450 [14]: 2.7 OD450

B4: 7221G20-hIgG1 (antibody, V domains shown)
VH: EVQLVESGGGLVQPGRSLRLSCAASGFTFDDYSMHWVRQAPGKGLEWVSGISWNSGSIGYADSVKGRFTISRDNAKNSLYLQMNSLRAEDTALYYCAKYGSGYGKFYYYGMDVWGQGTTVTVSS
VL: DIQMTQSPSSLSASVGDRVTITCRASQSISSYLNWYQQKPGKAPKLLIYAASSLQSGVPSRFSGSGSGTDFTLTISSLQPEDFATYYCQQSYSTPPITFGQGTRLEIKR
Q: How did the EC50 (human CD3ε/δ-His [15]) turn out when B4 was run?
A: 23.4 nM

Q: What about the max-OD450 (human CD3ε/δ-His [15]) of the same binder?
A: 1.31 OD450

Q: And the max-OD450 [16]?
A: 0.05 OD450

Q: What about the EC50 [12] of the same binder?
A: 4.72 nM

Q: And the max_MFI [12]?
A: 20900 MFI

Q: And the EC50 (human CD3ε/δ-His [13])?
A: 23.4 nM

Q: What about the max-OD450 (human CD3ε/δ-His [13]) of the same binder?
A: 1.31 OD450

Q: And the max-OD450 [14]?
A: 0.06 OD450

Q: And the EC50 (human CD3ε/δ-His [17])?
A: 23.4 nM

Q: What about the max-OD450 (human CD3ε/δ-His [17]) of the same binder?
A: 1.31 OD450

Q: Does B4 bind [18]?
A: no binding (tested: 100 nM (initial concentration))

Q: What about the max-OD450 [18] of the same binder?
A: 0.15 OD450

Source: patent publication US20250136687A1 (SHANDONG SIMCERE BIOPHARMACEUTICAL, published 2025)
